Measured values reported in US20060234941A1 (US Dept. of Health and Human Services, published 2006).

T1: H-2Db MHC class I molecule on RMA-S cells (mouse, UniProt P01887 21-119; P01899 25-362)
T1 construct: MHC class I stabilised on RMA-S (H-2b) cells by added peptide; detected with anti-H-2Db monoclonal antibody clone 28-14-8; also called H-2Db molecules
T1 sequence (MHC heavy, looked up): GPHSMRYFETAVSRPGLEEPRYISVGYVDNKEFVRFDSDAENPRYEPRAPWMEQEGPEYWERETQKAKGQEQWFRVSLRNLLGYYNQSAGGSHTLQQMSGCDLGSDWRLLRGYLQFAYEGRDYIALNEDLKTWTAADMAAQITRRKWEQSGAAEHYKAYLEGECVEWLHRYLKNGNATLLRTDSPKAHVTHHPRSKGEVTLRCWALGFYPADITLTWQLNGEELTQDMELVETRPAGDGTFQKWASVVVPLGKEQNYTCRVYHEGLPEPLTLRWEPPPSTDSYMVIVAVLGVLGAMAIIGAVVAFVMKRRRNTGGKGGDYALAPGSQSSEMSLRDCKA
T1 sequence (b2m, looked up): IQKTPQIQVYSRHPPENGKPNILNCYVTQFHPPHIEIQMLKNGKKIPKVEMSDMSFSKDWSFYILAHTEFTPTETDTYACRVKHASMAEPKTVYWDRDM

B1: KDR3 (murine VEGFR-2/KDR peptide FSNSTNDILI) (peptide)
peptide: FSNSTNDILI
notes: Synthetic peptide (Sigma); also called VEGFR-2/KDR3
B2: KDR2 (murine VEGFR-2/KDR peptide VILTNPISM) (peptide)
peptide: VILTNPISM
notes: Synthetic peptide (Sigma); also called VEGFR-2/KDR2
B3: Human P53 264-272 peptide (peptide, UniProt P04637 264-272, looked up)
peptide: LLGRNSFEV
notes: range 264-272; also called wild type P53 264-272

Tests used:
[1] = target: T1, H-2Db MHC class I molecule on RMA-S …; experiment: RMA-S MHC class I stabilisation assay, flow cytometry with anti-H-2Db antibody
Procedure: To test the binding affinity of these peptides to H-2Db, an RMA-S binding experiment was performed, and the FI value in the assay was measured. […] The RMA-Binding assays were performed as previously described (Lyman et al., J. Virol. 76:3125-3134, 2002). Briefly, synthetic peptides were dissolved in dimethyl sulfoxide before dilution. For MHC-binding assays, RMA-S cells were loaded with various peptides for 16 to 18 h at 37° C. Levels of surface class I molecules were assessed by flow cytometric analysis (FACScan; Becton Dickinson) using mouse monoclonal antibodies specific for H-2Db (Southern Biotech, clone No. 28-14-8). FI=Fluorescence after peptides stimulation/ Fluorescence without peptide-1.

[2] = target: T2, HLA-A2 on the surface of T2 cells (human); experiment: T2 HLA-A2 stabilisation assay, flow cytometry with W6/32
T2 construct: Stabilised HLA-A2 detected with pan HLA class I monoclonal antibody W6/32; also called MHC molecules
Procedure: To test the binding affinity of the predicted human peptides for HLA-A2, three exemplary peptides, designated KDR505 (SEQ ID NO:6), KDR775 (SEQ ID NO:7) and KDR1093 (SEQ ID NO:5) were synthesized and evaluated in a T2 binding assay as described by Cerundolo et al., Nature 342:449-452, 1990. In brief, T2 cells were cultured in RPMI1640 with 10% FBS, and grown in 5% CO₂ at 37° C. Cells (1×10⁵) in a volume of 100 μl of RPMI 1640 (serum free) were aliquoted into 96-well, U-bottomed plates and incubated with peptide at a final concentration of 0.1-100 μM plus 5 nM β₂ microglobulin (Cymbus Biotechnology Ltd., Chandlers Ford, Hampshire, United Kingdom) for 18 h at 37° C. in 5% CO₂. The level of stabilized HLA-A2 on the surface of the T2 cells was detected using the pan HLA class I monoclonal antibody W6/32 (European Collection of Animal Cell Cultures (ECACC), Porton Down, Salisbury) that recognizes stabilized HLA-A2 complexes. Samples are fixed in 1% paraformaldehyde in PBS prior to analysis and analyzed on a Becton Dickinson FACSCAN®.

| Binder | peptide concentration at FI=0.5 [1] [µM] | binding result [2] | binding result [1] |
| --- | --- | --- | --- |
| B1 | ~3 |  |  |
| RAHYNIVTF (peptide, UniProt P03129 49-57, looked up, range 49-57; also called HPV E7 49-57) [Human Papilloma Virus (HPV)16E7 49-57 peptide] | ~12.5 |  |  |
| AMFFWLLLV [KDR775 (human VEGFR-2/KDR peptide AMFFWLLLV)] |  | binds |  |
| B2 | ~24 |  |  |
| ALIEGKNKT [KDR505 (human VEGFR-2/KDR peptide ALIEGKNKT)] |  | binds |  |
| VLLWEIFSL [KDR1093 (human VEGFR-2/KDR peptide VLLWEIFSL)] |  | binds |  |
| B3 | > 200 |  | no binding (tested: 200 µM) |
